# Experimental data: US8158376B2, “Bisubstrate fluorescent probe binding to protein kinases” (University of Tartu, priority 2006, dated 2012)
# Read-outs that look alike come from different tables or passages of the source.
# Assays:
# Assay in all cases: Kinase selectivity panel
# Type in all cases: biochemical
# [1] = molecular target: Src (Homo sapiens, UniProt P12931); settings: read-out: residual activity (%) Src
# Method: (§1) The panel of kinases included all 52 kinases available for testing.
# (§2) The assay of protein kinases was performed at 30° C. as described previously [Davies et al., Biochem. J. 351 (2000) 95; Murray et al., Biochem. J. 384 (2004) 477].
# [2] = molecular target: CK2 (Homo sapiens, UniProt P68400); settings: read-out: residual activity (%) CK2
# Method: as §1, §2
# [3] = molecular target: MAPKAP-K3 (Homo sapiens, UniProt Q16644); settings: read-out: residual activity (%) MAPKAP-K3
# Method: as §1, §2
# [4] = molecular target: T1, PRAK (Homo sapiens, UniProt Q8IW41); settings: read-out: residual activity (%) PRAK
# T1 sequence (Q8IW41 1-473): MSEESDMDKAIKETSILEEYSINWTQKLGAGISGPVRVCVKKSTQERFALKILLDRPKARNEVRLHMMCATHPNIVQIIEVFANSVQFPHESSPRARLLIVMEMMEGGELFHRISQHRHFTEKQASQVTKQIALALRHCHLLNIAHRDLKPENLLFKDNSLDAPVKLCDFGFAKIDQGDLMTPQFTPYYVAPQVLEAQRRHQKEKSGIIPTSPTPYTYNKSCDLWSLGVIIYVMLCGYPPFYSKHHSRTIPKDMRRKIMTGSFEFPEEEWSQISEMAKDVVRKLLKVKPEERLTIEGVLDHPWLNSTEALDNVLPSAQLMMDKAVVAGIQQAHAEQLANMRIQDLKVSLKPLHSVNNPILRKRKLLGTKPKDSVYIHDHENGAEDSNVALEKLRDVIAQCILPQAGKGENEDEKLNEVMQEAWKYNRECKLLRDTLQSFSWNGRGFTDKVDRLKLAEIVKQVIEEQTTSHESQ
# Method: as §1, §2
# [5] = molecular target: T2, ERK8 (Homo sapiens, UniProt Q8TD08); settings: read-out: residual activity (%) ERK8
# T2 sequence (Q8TD08 1-544): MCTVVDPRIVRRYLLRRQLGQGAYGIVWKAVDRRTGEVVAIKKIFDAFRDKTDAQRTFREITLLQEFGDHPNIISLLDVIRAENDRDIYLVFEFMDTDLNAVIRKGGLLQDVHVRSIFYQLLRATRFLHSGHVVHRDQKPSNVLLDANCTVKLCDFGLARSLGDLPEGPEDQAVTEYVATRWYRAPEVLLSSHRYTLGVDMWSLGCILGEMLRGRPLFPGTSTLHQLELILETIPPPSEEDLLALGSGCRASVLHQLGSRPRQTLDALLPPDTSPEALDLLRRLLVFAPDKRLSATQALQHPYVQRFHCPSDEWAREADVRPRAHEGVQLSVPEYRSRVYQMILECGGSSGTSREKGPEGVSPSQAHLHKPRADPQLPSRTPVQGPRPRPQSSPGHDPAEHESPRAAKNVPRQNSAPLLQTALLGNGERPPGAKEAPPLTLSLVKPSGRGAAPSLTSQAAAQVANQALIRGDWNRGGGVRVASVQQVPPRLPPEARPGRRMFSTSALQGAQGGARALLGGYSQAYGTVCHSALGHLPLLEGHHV
# Method: as §1, §2
# [6] = molecular target: SRPK1 (Homo sapiens, UniProt Q96SB4); settings: read-out: residual activity (%) SRPK1
# Method: as §1, §2
# [7] = molecular target: PIM2 (Homo sapiens, UniProt Q9P1W9); settings: read-out: residual activity (%) PIM2
# Method: as §1, §2
# [8] = molecular target: P70 S6K (Homo sapiens, UniProt P23443); settings: ATP 20 μM
# Method: as §1, §2
# [9] = molecular target: Aurora B (Homo sapiens, UniProt Q96GD4); settings: read-out: residual activity (%) Aurora B
# Method: as §1, §2
# [10] = molecular target: smMLCK (Homo sapiens, UniProt Q15746); settings: read-out: residual activity (%) smMLCK
# Method: as §1, §2
# [11] = molecular target: T3, SGK (Homo sapiens, UniProt O00141); settings: read-out: residual activity (%) SGK
# T3 sequence (O00141 1-431): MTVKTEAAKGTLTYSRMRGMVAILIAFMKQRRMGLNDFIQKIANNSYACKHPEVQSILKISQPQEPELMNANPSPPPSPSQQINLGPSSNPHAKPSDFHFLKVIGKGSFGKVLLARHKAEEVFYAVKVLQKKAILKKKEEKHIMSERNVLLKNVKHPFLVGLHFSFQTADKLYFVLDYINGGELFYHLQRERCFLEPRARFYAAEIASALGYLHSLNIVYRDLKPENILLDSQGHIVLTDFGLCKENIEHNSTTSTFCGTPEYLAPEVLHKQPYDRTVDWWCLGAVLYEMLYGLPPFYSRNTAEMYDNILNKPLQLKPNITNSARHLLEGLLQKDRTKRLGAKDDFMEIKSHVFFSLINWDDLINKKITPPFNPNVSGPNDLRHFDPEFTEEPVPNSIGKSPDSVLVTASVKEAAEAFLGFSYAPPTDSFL
# Method: as §1, §2
# Sequence of P70 S6K (P23443 whole entry): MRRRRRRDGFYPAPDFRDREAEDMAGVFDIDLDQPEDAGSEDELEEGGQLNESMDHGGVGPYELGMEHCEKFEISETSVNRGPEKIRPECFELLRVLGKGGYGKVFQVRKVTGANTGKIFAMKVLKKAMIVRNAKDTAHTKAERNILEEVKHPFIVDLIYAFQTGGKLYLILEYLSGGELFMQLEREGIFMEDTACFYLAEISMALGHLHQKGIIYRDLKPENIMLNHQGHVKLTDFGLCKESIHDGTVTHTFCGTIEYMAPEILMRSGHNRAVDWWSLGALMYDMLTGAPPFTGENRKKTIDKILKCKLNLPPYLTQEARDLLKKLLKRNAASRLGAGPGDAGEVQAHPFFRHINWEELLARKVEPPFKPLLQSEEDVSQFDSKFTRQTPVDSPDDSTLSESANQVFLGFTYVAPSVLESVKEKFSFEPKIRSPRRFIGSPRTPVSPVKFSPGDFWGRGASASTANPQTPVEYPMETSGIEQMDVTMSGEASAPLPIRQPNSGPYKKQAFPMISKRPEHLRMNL
# Sequence of MAPKAP-K3 (Q16644 whole entry, species assumed): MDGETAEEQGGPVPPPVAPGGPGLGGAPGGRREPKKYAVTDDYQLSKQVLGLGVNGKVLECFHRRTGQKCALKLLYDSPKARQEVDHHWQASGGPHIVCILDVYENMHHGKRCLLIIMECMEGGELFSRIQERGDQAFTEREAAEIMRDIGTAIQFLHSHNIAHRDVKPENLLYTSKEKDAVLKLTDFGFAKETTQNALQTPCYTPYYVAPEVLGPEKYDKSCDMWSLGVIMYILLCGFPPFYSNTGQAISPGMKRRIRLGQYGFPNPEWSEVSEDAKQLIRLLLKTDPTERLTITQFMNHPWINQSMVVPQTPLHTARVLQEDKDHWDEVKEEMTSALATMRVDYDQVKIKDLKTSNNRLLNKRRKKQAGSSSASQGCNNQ
# Sequence of Src (P12931 whole entry, species assumed): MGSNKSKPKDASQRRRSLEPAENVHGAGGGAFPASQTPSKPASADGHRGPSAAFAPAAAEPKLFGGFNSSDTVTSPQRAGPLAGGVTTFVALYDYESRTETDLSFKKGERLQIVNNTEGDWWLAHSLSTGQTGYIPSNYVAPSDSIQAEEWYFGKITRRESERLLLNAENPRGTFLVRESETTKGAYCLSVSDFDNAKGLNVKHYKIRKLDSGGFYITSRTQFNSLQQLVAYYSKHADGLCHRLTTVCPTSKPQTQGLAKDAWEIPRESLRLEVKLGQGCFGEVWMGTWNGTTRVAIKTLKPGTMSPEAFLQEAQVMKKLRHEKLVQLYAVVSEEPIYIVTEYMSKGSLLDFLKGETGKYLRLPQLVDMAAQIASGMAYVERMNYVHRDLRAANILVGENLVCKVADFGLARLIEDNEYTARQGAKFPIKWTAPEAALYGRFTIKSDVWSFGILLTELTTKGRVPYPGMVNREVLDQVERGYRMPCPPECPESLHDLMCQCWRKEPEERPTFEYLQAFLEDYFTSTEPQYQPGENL
# Sequence of CK2 (P68400 whole entry): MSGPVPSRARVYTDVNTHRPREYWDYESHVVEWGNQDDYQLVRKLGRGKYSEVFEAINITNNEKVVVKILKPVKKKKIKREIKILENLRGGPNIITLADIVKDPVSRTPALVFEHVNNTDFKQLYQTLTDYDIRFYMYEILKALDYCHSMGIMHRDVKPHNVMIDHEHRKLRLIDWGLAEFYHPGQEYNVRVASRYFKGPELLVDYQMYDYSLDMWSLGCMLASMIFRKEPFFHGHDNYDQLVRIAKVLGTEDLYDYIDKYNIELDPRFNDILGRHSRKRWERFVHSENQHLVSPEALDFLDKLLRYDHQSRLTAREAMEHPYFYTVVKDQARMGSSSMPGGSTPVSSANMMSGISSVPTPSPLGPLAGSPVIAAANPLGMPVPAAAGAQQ
# Sequence of Aurora B (Q96GD4 whole entry): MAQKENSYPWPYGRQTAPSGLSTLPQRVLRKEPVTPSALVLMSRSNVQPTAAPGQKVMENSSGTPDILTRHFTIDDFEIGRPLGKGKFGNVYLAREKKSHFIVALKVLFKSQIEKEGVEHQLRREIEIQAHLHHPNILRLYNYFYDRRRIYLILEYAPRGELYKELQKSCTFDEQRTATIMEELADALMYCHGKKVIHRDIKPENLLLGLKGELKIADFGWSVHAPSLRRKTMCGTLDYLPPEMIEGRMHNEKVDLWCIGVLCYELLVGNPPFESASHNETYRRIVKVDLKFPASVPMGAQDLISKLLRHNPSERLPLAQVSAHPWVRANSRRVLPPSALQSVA
# Sequence of PIM2 (Q9P1W9 whole entry, species assumed): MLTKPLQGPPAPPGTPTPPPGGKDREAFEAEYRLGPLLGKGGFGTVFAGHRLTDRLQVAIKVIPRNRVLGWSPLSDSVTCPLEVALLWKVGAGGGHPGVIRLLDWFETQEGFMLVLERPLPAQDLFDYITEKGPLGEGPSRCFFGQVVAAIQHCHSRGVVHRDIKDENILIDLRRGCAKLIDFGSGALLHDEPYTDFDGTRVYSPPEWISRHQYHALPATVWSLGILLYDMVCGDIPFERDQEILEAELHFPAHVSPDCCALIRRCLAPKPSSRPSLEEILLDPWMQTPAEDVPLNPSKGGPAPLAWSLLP
# Sequence of SRPK1 (Q96SB4 whole entry, species assumed): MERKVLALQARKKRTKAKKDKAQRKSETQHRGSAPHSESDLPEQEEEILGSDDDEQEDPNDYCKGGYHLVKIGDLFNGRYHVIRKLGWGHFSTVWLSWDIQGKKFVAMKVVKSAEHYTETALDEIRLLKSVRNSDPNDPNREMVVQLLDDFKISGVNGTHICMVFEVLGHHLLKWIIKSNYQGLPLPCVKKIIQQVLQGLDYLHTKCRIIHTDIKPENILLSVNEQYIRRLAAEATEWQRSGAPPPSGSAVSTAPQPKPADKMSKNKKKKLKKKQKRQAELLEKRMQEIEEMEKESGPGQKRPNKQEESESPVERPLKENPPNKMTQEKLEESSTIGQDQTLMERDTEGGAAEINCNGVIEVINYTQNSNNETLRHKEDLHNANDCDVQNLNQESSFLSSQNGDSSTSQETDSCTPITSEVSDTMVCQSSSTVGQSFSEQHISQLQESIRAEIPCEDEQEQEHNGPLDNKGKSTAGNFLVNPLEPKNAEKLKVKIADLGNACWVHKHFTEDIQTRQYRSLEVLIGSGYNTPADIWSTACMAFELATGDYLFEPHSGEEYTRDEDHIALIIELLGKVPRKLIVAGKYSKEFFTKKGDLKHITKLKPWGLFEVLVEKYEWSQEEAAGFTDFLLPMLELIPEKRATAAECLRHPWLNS
smiles,measurement,setting,value
"N=C(N)NCCC[C@@H](NC(=O)[C@@H](CCCNC(=N)N)NC(=O)[C@@H](CCCNC(=N)N)NC(=O)[C@@H](CCCNC(=N)N)NC(=O)[C@@H](CCCNC(=N)N)NC(=O)[C@@H](CCCNC(=N)N)NC(=O)CCCCCNCCNS(=O)(=O)c1cccc2cnccc12)C(N)=O [Compound 26, H9-Hex(D-Arg)6-NH2]",remaining activity at 1 µM,"[1]; inhibitor 1 μM, ATP 50 μM",88%
same,remaining activity at 1 µM,"[2]; inhibitor 1 μM, ATP 5 μM",87%
same,remaining activity at 1 µM,"[3]; inhibitor 1 μM, ATP 20 μM",69%
same,remaining activity at 1 µM,"[4]; inhibitor 1 μM, ATP 20 μM",97%
same,remaining activity at 1 µM,"[5]; inhibitor 1 μM, ATP 5 μM",52%
same,remaining activity at 1 µM,"[6]; inhibitor 1 μM, ATP 50 μM",99%
same,remaining activity at 1 µM,"[7]; inhibitor 1 μM, ATP 5 μM",< 10%
same,remaining activity at 1 µM,"[8]; inhibitor 1 μM, read-out: residual activity (%) P70 S6K",2%
same,remaining activity at 1 µM,"[9]; inhibitor 1 μM, ATP 20 μM",53%
same,remaining activity at 1 µM,"[10]; inhibitor 1 μM, ATP 50 μM",90%
same,remaining activity at 1 µM,"[11]; inhibitor 1 μM, ATP 20 μM",1%
"N=C(N)NCCC[C@@H](NC(=O)[C@@H](CCCNC(=N)N)NC(=O)[C@@H](CCCNC(=N)N)NC(=O)[C@@H](CCCNC(=N)N)NC(=O)[C@@H](CCCNC(=N)N)NC(=O)[C@@H](CCCNC(=N)N)NC(=O)CCCCCNC(=O)[C@H]1O[C@@H](n2cnc3c(N)ncnc32)[C@H](O)[C@@H]1O)C(N)=O [Compound 5, AdcAhx(D-Arg)6-NH2]",remaining activity at 1 µM,[1],84%
same,remaining activity at 1 µM,[2],104%
same,remaining activity at 1 µM,[3],67%
same,remaining activity at 1 µM,[4],89%
same,remaining activity at 1 µM,[5],50%
same,remaining activity at 1 µM,[6],100%
same,remaining activity at 1 µM,[7],38%
same,residual activity (%) P70 S6K,[8]; inhibitor 1 μM,7 (±2) %
same,remaining activity at 1 µM,"[8]; read-out: residual activity (%) P70 S6K, inhibitor 1 μM",7 to 28%
same,remaining activity at 1 µM,[9],103%
same,remaining activity at 1 µM,[10],72%
same,remaining activity at 1 µM,[11],16%
